# Results from the supplement of paper PMC5998384.
# Columns and labels:
# HeLa Kyoto [1] = assay: solubility in G1/S (NP-40 vs SDS abundance) (log2 ratio); higher = more soluble; conditions: cell cycle stage: G1/S
# HeLa Kyoto [2] = assay: melting temperature (median over replicates), in situ; higher = more thermally stable
# HeLa Kyoto [3] = assay: solubility change mitosis vs G1/S (difference of NP-40 vs SDS log2 ratios) (log2 ratio difference); higher = more soluble in mitosis
# 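Wherever melting temperature (median over replicates), in situ is given: HeLa Kyoto cells synchronized by double thymidine or nocodazole block, proteins quantified by TMT10plex mass spectrometry, three independent biological replicates.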
# 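Wherever solubility change mitosis vs G1/S (difference of NP-40 vs SDS log2 ratios) is given: synchronized HeLa Kyoto cells (double thymidine block for G1/S, nocodazole release for mitosis), protein amounts in NP-40 versus SDS lysates quantified by mass spectrometry, three biological replicates.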
# 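Wherever solubility in G1/S (NP-40 vs SDS abundance) is given: HeLa Kyoto cells arrested at G1/S by double thymidine block, proteins quantified by TMT10plex mass spectrometry in mild NP-40 versus SDS extracts, three biological replicates.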
Substance,solubility in G1/S (log2) (HeLa Kyoto [1]),melting temperature (HeLa Kyoto [2]; cell cycle stage: G1/S) [°C],melting temperature (HeLa Kyoto [2]; cell cycle stage: mitosis) [°C],solubility change mitosis (log2) (HeLa Kyoto [3])
MSAGGSARKSTGRSSYYYRLLRRPRLQRQRSRSRSRTRPARESPQERPGSRRSLPGSLSEKSPSMEPSAATPFRVTGFLSRRLKGSIKRTKSQPKLDRNHSFRHILPGFRSAAAAAADNERSHLMPRLKESRSHESLLSPSSAVEALDLSMEEEVVIKPVHSSILGQDYCFEVTTSSGSKCFSCRSAAERDKWMENLRRAVHPNKDNSRRVEHILKLWVIEAKDLPAKKKYLCELCLDDVLYARTTGKLKTDNVFWGEHFEFHNLPPLRTVTVHLYRETDKKKKKERNSYLGLVSLPAASVAGRQFVEKWYPVVTPNPKGGKGPGPMIRIKARYQTITILPMEMYKEFAEHITNHYLGLCAALEPILSAKTKEEMASALVHILQSTGKVKDFLTDLMMSEVDRCGDNEHLIFRENTLATKAIEEYLKLVGQKYLQDALGEFIKALYESDENCEVDPSKCSAADLPEHQGNLKMCCELAFCKIINSYCVFPRELKEVFASWRQECSSRGRPDISERLISASLFLRFLCPAIMSPSLFNLLQEYPDDRTARTLTLIAKVTQNLANFAKFGSKEEYMSFMNQFLEHEWTNMQRFLLEISNPETLSNTAGFEGYIDLGRELSSLHSLLWEAVSQLEQSIVSKLGPLPRILRDVHTALSTPGSGQLPGTNDLASTPGSGSSSISAGLQKMVIENDLSGLIDFTRLPSPTPENKDLFFVTRSSGVQPSPARSSSYSEANEPDLQMANGGKSLSMVDLQDARTLDGEAGSPAGPDVLPTDGQAAAAQLVAGWPARATPVNLAGLATVRRAGQTPTTPGTSEGAPGRPQLLAPLSFQNPVYQMAAGLPLSPRGLGDSGSEGHSSLSSHSNSEELAAAAKLGSFSTAAEELARRPGELARRQMSLTEKGGQPTVPRQNSAGPQRRIDQPPPPPPPPPPAPRGRTPPNLLSTLQYPRPSSGTLASASPDWVGPSTRLRQQSSSSKGDSPELKPRAVHKQGPSPVSPNALDRTAAWLLTMNAQLLEDEGLGPDPPHRDRLRSKDELSQAEKDLAVLQDKLRISTKKLEEYETLFKCQEETTQKLVLEYQARLEEGEERLRRQQEDKDIQMKGIISRLMSVEEELKKDHAEMQAAVDSKQKIIDAQEKRIASLDAANARLMSALTQLKERYSMQARNGISPTNPTKLQITENGEFRNSSNC [DAB2IP],0.117,49.5,51,0.0598
MEAEETMECLQEFPEHHKMILDRLNEQREQDRFTDITLIVDGHHFKAHKAVLAACSKFFYKFFQEFTQEPLVEIEGVSKMAFRHLIEFTYTAKLMIQGEEEANDVWKAAEFLQMLEAIKALEVRNKENSAPLEENTTGKNEAKKRKIAETSNVITESLPSAESEPVEIEVEIAEGTIEVEDEGIETLEEVASAKQSVKYIQSTGSSDDSALALLADITSKYRQGDRKGQIKEDGCPSDPTSKQVEGIEIVELQLSHVKDLFHCEKCNRSFKLFYHFKEHMKSHSTESFKCEICNKRYLRESAWKQHLNCYHLEEGGVSKKQRTGKKIHVCQYCEKQFDHFGHFKEHLRKHTGEKPFECPNCHERFARNSTLKCHLTACQTGVGAKKGRKKLYECQVCNSVFNSWDQFKDHLVIHTGDKPNHCTLCDLWFMQGNELRRHLSDAHNISERLVTEEVLSVETRVQTEPVTSMTIIEQVGKVHVLPLLQVQVDSAQVTVEQVHPDLLQDSQVHDSHMSELPEQVQVSYLEVGRIQTEEGTEVHVEELHVERVNQMPVEVQTELLEADLDHVTPEIMNQEERESSQADAAEAAREDHEDAEDLETKPTVDSEAEKAENEDRTALPVLE [ZNF131],-0.231,46.6,–,-0.0242
CRYBG3,-0.18,51.3,50.4,-0.00814
MISQFFILSSKGDPLIYKDFRGDSGGRDVAELFYRKLTGLPGDESPVVMHHHGRHFIHIRHSGLYLVVTTSENVSPFSLLELLSRLATLLGDYCGSLGEGTISRNVALVYELLDEVLDYGYVQTTSTEMLRNFIQTEAVVSKPFSLFDLSSVGLFGAETQQSKVAPSSAASRPVLSSRSDQSQKNEVFLDVVERLSVLIASNGSLLKVDVQGEIRLKSFLPSGSEMRIGLTEEFCVGKSELRGYGPGIRVDEVSFHSSVNLDEFESHRILRLQPPQGELTVMRYQLSDDLPSPLPFRLFPSVQWDRGSGRLQVYLKLRCDLLSKSQALNVRLHLPLPRGVVSLSQELSSPEQKAELAEGALRWDLPRVQGGSQLSGLFQMDVPGPPGPPSHGLSTSASPLGLGPASLSFELPRHTCSGLQVRFLRLAFRPCGNANPHKWVRHLSHSDAYVIRI [AP4M1],-0.0981,49.2,–,-0.0241
MASREEVLALQAEVAQREEELNSLKQKLASALLAEQEPQPERLVPVSPLPPKAALSRDEILRYSRQLVLPELGVHGQLRLGTACVLIVGCGGLGCPLAQYLAAAGVGRLGLVDYDVVEMSNLARQVLHGEALAGQAKAFSAAASLRRLNSAVECVPYTQALTPATALDLVRRYDVVADCSDNVPTRYLVNDACVLAGRPLVSASALRFEGQITVYHYDGGPCYRCIFPQPPPAETVTNCADGGVLGVVTGVLGCLQALEVLKIAAGLGPSYSGSLLLFDALRGHFRSIRLRSRRLDCAACGERPTVTDLLDYEAFCGSSATDKCRSLQLLSPEERVSVTDYKRLLDSGAFHLLLDVRPQVEVDICRLPHALHIPLKHLERRDAESLKLLKEAIWEEKQGTQEGAAVPIYVICKLGNDSQKAVKILQSLSAAQELDPLTVRDVVGGLMAWAAKIDGTFPQY [MOCS3],0.156,51.3,49.5,-0.0562
MGPVRLGILLFLFLAVHEAWAGMLKEEDDDTERLPSKCEVCKLLSTELQAELSRTGRSREVLELGQVLDTGKRKRHVPYSVSETRLEEALENLCERILDYSVHAERKGSLRYAKGQSQTMATLKGLVQKGVKVDLGIPLELWDEPSVEVTYLKKQCETMLEEFEDIVGDWYFHHQEQPLQNFLCEGHVLPAAETACLQETWTGKEITDGEEKTEGEEEQEEEEEEEEEEGGDKMTKTGSHPKLDREDL [CNPY4],0.0586,–,54.3,0.223
